Data from patent publication US7094599.

Biological target: MHC class II antigen on the Raji B cell line
Experiment: cell-based or functional assay

percent cytolysis of Raji (MHC class II+) cells by CTL expressing CD4:ζ: 5%
Substance: CD4:ζ (receptor)
